Data from US20040029198A1, “Method of analyzing ataxia-telangiectasia protein” (priority 2002, published 2004).

Legend:
[1] = Stability of ATM protein in whole blood; format: physicochemical; conditions: FIG. 3
Procedure: (§1) It has been observed that ATM protein is unstable in whole blood. […] It is therefore preferable that ATM proteins be isolated and measured shortly after extracting the cells from a patient to obtain the most reliable data. […] Table 2 compares the amount of ATM in two such samples stored at −5° C. and −70° C.

[2] = Stability of ATM in isolated PBMC samples stored at different temperatures, measured by sandwich immunoassay; format: physicochemical; conditions: for amount of ATM: in ng/mL (unit assumed)
Procedure: The following is a sandwich immunoassay which was performed to measure ATM protein in nuclear cell lysates and cell extracts from cell lines and peripheral blood mononuclear cells taken from normal individuals and A-T patients.
Wells of a 96-well flat bottom plate were incubated with two purified commercially available anti-ATM mouse monoclonal antibodies (ATM-2C1, GeneTex, Inc, San Antonio, Tex.; Ab-8, NeoMarkers, Fremont, Calif.) at 5 μg/ml in phosphate-buffered saline, pH 7.4 for 6 hours. After extensive washing and blocking of the wells for one hour with a solution of 3% bovine serum albumin in phosphate buffered saline containing 0.1% Tween-20, standard concentrations of purified ATM protein and nuclear cell lysates or cell extracts (see below) were added to the wells for an overnight incubation at room temperature.
After extensive washing, a rabbit anti-ATM antiserum at a 400× dilution was added to each of the wells and incubated for 3 hours at room temperature. The antiserum came from Novus Biologicals (NB 100-104, Littleton, Colo.). After washing and blocking, an HRP-conjugated goat anti-rabbit IgG antiserum at a 1:6000 dilution was added to each well and incubated for 3 hours at room temperature. The conjugate came from Jackson ImmunoResearch Laboratories (211-035-109, West Grove, Pa.).
The plate was then washed and Pierce ImmunoPure tetramethylbenzidine (TMB) substrate (34021, Rockford, Ill.) was added to each well. After color development, the reaction was stopped with 1M sulfuric acid and the color intensity was measured spectrophometrically at 450 nm. A concentration curve was generated based on signals generated for the purified ATM protein and concentrations of unknown samples were read off the standard curve.
Nuclear lysates were prepared from lymphoblastoid cell lines (EBV-infected) derived from A-T patients and healthy donors using commercially available extraction reagents and procedures (78833, Pierce, Rockford, Ill.). Whole cell extracts were generated from peripheral blood mononuclear cells and lymphoblastoid cell lines by subjecting known numbers of resuspended cells to ultrasonic energy at a 20 kHz frequency generated by a Fisher Sonic Dismembrator (model 550). The disrupted cell product was then added directly to wells of the microtiter plate without any additional manipulations.
as §1

ATM: 370 kDa protein kinase known as "ataxia-telangiectasia, mutated" (ATM), encoded by the A-T gene
stability in whole blood [1]: unstable
stability of ATM levels in a sample ([2]; PBMCs isolated from fresh blood, stored at −70° C. for 6 weeks): relatively stable
amount of ATM ([2]; stored at −5° C., week 0, 3 readings): 444 ± 22
amount of ATM ([2]; stored at −5° C., week 1, 3 readings): 126 ± 8
amount of ATM ([2]; stored at −5° C., week 2, 3 readings): 115 ± 14
amount of ATM ([2]; stored at −5° C., week 3, 3 readings): 66 ± 17
amount of ATM ([2]; stored at −5° C., week 4, 3 readings): 50 ± 10
amount of ATM ([2]; stored at −5° C., week 6, 3 readings): 32 ± 2
amount of ATM ([2]; stored at −70° C., week 0, 3 readings): 444 ± 22
amount of ATM ([2]; stored at −70° C., week 1, 3 readings): 458 ± 11
amount of ATM ([2]; stored at −70° C., week 2, 3 readings): 512 ± 63
amount of ATM ([2]; stored at −70° C., week 3, 3 readings): 424 ± 34
amount of ATM ([2]; stored at −70° C., week 4, 3 readings): 439 ± 79
amount of ATM ([2]; stored at −70° C., week 6, 3 readings): 458 ± 69
